Measured values as given in PMC3978094.
Like-named read-outs stand apart in the source and are kept apart here.

Tests used:
[1] = biological target: T1, GATA3 DBD (N- and C-finger) (human, UniProt P23771-2 260-370); experiment: SPR
[2] = biological target: T1, GATA3 DBD (N- and C-finger); experiment: SPR; remark: listed apart in the source
[3] = biological target: T1, GATA3 DBD (N- and C-finger); experiment: crystal structure
[4] = biological target: T1, GATA3 DBD (N- and C-finger); experiment: crystal structure; remark: listed apart in the source

B1: palindromic GATA site SPR probe (dsDNA)
DNA 1: CTCCCGCTCGCTATCAGATAAGGCCTTAT
DNA 2: ATAAGGCCTTATCTGATAGCGAGCGGGAG
B1 showed a Kd [1] of ~6 nM.

B2: single GATA site SPR probe (dsDNA)
DNA 1: CTCCCGCTCGCTCAGAGATAAGGCCTTAT
DNA 2: ATAAGGCTTTATCTCTGAGCGAGCGGGAG
B2 was tested, and the Kd [2] was ~60 nM.

B3: Complex 1 palindromic GATA site, 1-bp spacer, 20-mer (dsDNA)
DNA 1: AATGTCCATCTGATAAGACG
DNA 2: CGTCTTATCAGATGGACATT
B3: binds [3].

B4: Complex 2/3 palindromic GATA site, 3-bp spacer, 20-mer (dsDNA)
DNA 1: TTCCTAAATCAGAGATAACC
DNA 2: GGTTATCTCTGATTTAGGAA
B4: binds [4].
